# Test results: US20260167699A1 (Chugai, published 2026)
# B1: GpH7-A5/GpH7-B3 variant T335_14T/GpL16-k0 (antibody, human IgG1, kappa)
# heavy 1: not shown
# heavy 2: not shown
# light: DIVMTQSPLSLPVTPGEPASISCQASESLVHSNRNTYLHWYLQKPGQSPQLLIYKVSNRFSGVPDRFSGSGSGTDFTLKISRVEAEDVGVYYCSQNTHVPPTFGQGTKVEIERTVAAPSVFIFPPSDEQLKSGTASVVCLLNNFYPREAKVQWKVDNALQSGNSQESVTEQDSKDSTYSLSSTLTLSKADYEKHKVYACEVTHQGLSSPVTKSFNRGEC
# B2: GpH7-A5/GpH7-B3 variant A327_01G/GpL16-k0 (antibody, human IgG1, kappa)
# heavy 1: not shown
# heavy 2: not shown
# light: B1 light
# notes: copies: 1 + 1 + 2
# B3: GpH7-A5/GpH7-B3 variant A327_05P/GpL16-k0 (antibody, human IgG1, kappa)
# heavy 1: not shown
# heavy 2: not shown
# light: B1 light
# notes: copies: 1 + 1 + 2
# B4: GpH7-A5/GpH7-B3 variant A327_06M/GpL16-k0 (antibody, human IgG1, kappa)
# heavy 1: not shown
# heavy 2: not shown
# light: B1 light
# notes: copies: 1 + 1 + 2
# B5: GpH7-A5/GpH7-B3 variant A327_09D/GpL16-k0 (antibody, human IgG1, kappa)
# heavy 1: not shown
# heavy 2: not shown
# light: B1 light
# notes: copies: 1 + 1 + 2
# B6: GpH7-A5/GpH7-B3 variant A327_10E/GpL16-k0 (antibody, human IgG1, kappa)
# heavy 1: not shown
# heavy 2: not shown
# light: B1 light
# notes: copies: 1 + 1 + 2
# B7: GpH7-A5/GpH7-B3 variant A327_13S/GpL16-k0 (antibody, human IgG1, kappa)
# heavy 1: not shown
# heavy 2: not shown
# light: B1 light
# notes: copies: 1 + 1 + 2
# B8: GpH7-A5/GpH7-B3 variant A327_18N/GpL16-k0 (antibody, human IgG1, kappa)
# heavy 1: not shown
# heavy 2: not shown
# light: B1 light
# notes: copies: 1 + 1 + 2
# B9: GpH7-A5/GpH7-B3 variant A327_19Q/GpL16-k0 (antibody, human IgG1, kappa)
# heavy 1: not shown
# heavy 2: not shown
# light: B1 light
# notes: copies: 1 + 1 + 2
# B10: GpH7-A5/GpH7-B3 variant A327_20W/GpL16-k0 (antibody, human IgG1, kappa)
# heavy 1: not shown
# heavy 2: not shown
# light: B1 light
# notes: copies: 1 + 1 + 2
# B11: GpH7-A5/GpH7-B3 variant A330_01G/GpL16-k0 (antibody, human IgG1, kappa)
# heavy 1: not shown
# heavy 2: not shown
# light: B1 light
# notes: copies: 1 + 1 + 2
# B12: GpH7-A5/GpH7-B3 variant A330_03V/GpL16-k0 (antibody, human IgG1, kappa)
# heavy 1: not shown
# heavy 2: not shown
# light: B1 light
# notes: copies: 1 + 1 + 2
# B13: GpH7-A5/GpH7-B3 variant A330_04F/GpL16-k0 (antibody, human IgG1, kappa)
# heavy 1: not shown
# heavy 2: not shown
# light: B1 light
# notes: copies: 1 + 1 + 2
# B14: GpH7-A5/GpH7-B3 variant A330_05P/GpL16-k0 (antibody, human IgG1, kappa)
# heavy 1: not shown
# heavy 2: not shown
# light: B1 light
# notes: copies: 1 + 1 + 2
# B15: GpH7-A5/GpH7-B3 variant A330_06M/GpL16-k0 (antibody, human IgG1, kappa)
# heavy 1: not shown
# heavy 2: not shown
# light: B1 light
# notes: copies: 1 + 1 + 2
# B16: GpH7-A5/GpH7-B3 variant A330_07I/GpL16-k0 (antibody, human IgG1, kappa)
# heavy 1: not shown
# heavy 2: not shown
# light: B1 light
# notes: copies: 1 + 1 + 2
# B17: GpH7-A5/GpH7-B3 variant A330_08L/GpL16-k0 (antibody, human IgG1, kappa)
# heavy 1: not shown
# heavy 2: not shown
# light: B1 light
# notes: copies: 1 + 1 + 2
# B18: GpH7-A5/GpH7-B3 variant A330_09D/GpL16-k0 (antibody, human IgG1, kappa)
# heavy 1: not shown
# heavy 2: not shown
# light: B1 light
# notes: copies: 1 + 1 + 2
# B19: GpH7-A5/GpH7-B3 variant A330_10E/GpL16-k0 (antibody, human IgG1, kappa)
# heavy 1: not shown
# heavy 2: not shown
# light: B1 light
# notes: copies: 1 + 1 + 2
# B20: GpH7-A5/GpH7-B3 variant A330_11K/GpL16-k0 (antibody, human IgG1, kappa)
# heavy 1: not shown
# heavy 2: not shown
# light: B1 light
# notes: copies: 1 + 1 + 2
# B21: GpH7-A5/GpH7-B3 variant A330_12R/GpL16-k0 (antibody, human IgG1, kappa)
# heavy 1: not shown
# heavy 2: not shown
# light: B1 light
# notes: copies: 1 + 1 + 2
# B22: GpH7-A5/GpH7-B3 variant A330_14T/GpL16-k0 (antibody, human IgG1, kappa)
# heavy 1: not shown
# heavy 2: not shown
# light: B1 light
# notes: copies: 1 + 1 + 2
# B23: GpH7-A5/GpH7-B3 variant A330_15Y/GpL16-k0 (antibody, human IgG1, kappa)
# heavy 1: not shown
# heavy 2: not shown
# light: B1 light
# notes: copies: 1 + 1 + 2
# B24: GpH7-A5/GpH7-B3 variant A330_16H/GpL16-k0 (antibody, human IgG1, kappa)
# heavy 1: not shown
# heavy 2: not shown
# light: B1 light
# notes: copies: 1 + 1 + 2
# B25: GpH7-A5/GpH7-B3 variant A330_18N/GpL16-k0 (antibody, human IgG1, kappa)
# heavy 1: not shown
# heavy 2: not shown
# light: B1 light
# notes: copies: 1 + 1 + 2
# B26: GpH7-A5/GpH7-B3 variant A330_19Q/GpL16-k0 (antibody, human IgG1, kappa)
# heavy 1: not shown
# heavy 2: not shown
# light: B1 light
# notes: copies: 1 + 1 + 2
# B27: GpH7-A5/GpH7-B3 variant A330_20W/GpL16-k0 (antibody, human IgG1, kappa)
# heavy 1: not shown
# heavy 2: not shown
# light: B1 light
# notes: copies: 1 + 1 + 2
# B28: GpH7-A5/GpH7-B3 variant D270_02A/GpL16-k0 (antibody, human IgG1, kappa)
# heavy 1: not shown
# heavy 2: not shown
# light: B1 light
# notes: copies: 1 + 1 + 2
# B29: GpH7-A5/GpH7-B3 variant D270_03V/GpL16-k0 (antibody, human IgG1, kappa)
# heavy 1: not shown
# heavy 2: not shown
# light: B1 light
# notes: copies: 1 + 1 + 2
# B30: GpH7-A5/GpH7-B3 variant D270_06M/GpL16-k0 (antibody, human IgG1, kappa)
# heavy 1: not shown
# heavy 2: not shown
# light: B1 light
# notes: copies: 1 + 1 + 2
# Target: T1, FcγRIIIa (human, UniProt P08637 17-208)
# T1 construct: extracellular domain; also called 3a; FcγRIIIa extracellular domain
# Assay: SPR (Biacore);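 note: antibody variants captured on an SPR sensor chip, with FcγRIIIa passed over as analyte in HBS-EP+ buffer at 25 °C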
# Experimental: The antibody of interest was analyzed for its interaction with FcγR using a BiaCore™ T100, BiaCore™ A100, or BiaCore™ 4000 surface plasmon resonance system (GE Healthcare Japan Corp.). The running buffer used was HBS-EP+ (GE Healthcare Japan Corp.). The assay temperature was set to 25° C. The sensor chips used were: a chip prepared by immobilizing antigenic peptides onto Series S Sensor Chip CM5 (GE Healthcare Japan Corp.) by the amine coupling method; a chip prepared by immobilizing antigenic peptides biotinylated in advance onto Series S Sensor Chip SA (certified) (GE Healthcare Japan Corp.) through their interaction; a chip prepared by immobilizing protein L (ACTIGEN, BioVision, Inc.) onto Series S Sensor Chip CM5 (GE Healthcare Japan Corp.); and a chip prepared by immobilizing protein A/G (Thermo Fisher Scientific K.K.) onto Series S Sensor Chip CM5 (GE Healthcare Japan Corp.). The antibody of interest was captured onto any of these chips and allowed to interact with FcγR diluted with a running buffer. The antibody captured on the chip was washed off through the reaction of 10 mM glycine-HCl (pH 1.5) to regenerate the chip, which was repetitively used.
# T1 sequence (P08637 other isoform, or with tags, fused parts or gaps): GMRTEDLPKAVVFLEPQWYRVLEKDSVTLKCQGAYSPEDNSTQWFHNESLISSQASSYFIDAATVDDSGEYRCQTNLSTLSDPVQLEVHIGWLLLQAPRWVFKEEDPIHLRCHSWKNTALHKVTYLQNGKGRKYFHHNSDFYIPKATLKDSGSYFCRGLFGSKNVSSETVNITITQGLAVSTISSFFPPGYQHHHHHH
row,Binder,He/Con 3a
1,B1,104 % of GpH7-A5/GpH7-B3/GpL16-k0
2,B2,74.4 % of GpH7-A5/GpH7-B3/GpL16-k0
3,B3,61.9 % of GpH7-A5/GpH7-B3/GpL16-k0
4,B4,54 % of GpH7-A5/GpH7-B3/GpL16-k0
5,B5,86 % of GpH7-A5/GpH7-B3/GpL16-k0
6,B6,70.5 % of GpH7-A5/GpH7-B3/GpL16-k0
7,B7,66.7 % of GpH7-A5/GpH7-B3/GpL16-k0
8,B8,62.8 % of GpH7-A5/GpH7-B3/GpL16-k0
9,B9,54 % of GpH7-A5/GpH7-B3/GpL16-k0
10,B10,52.6 % of GpH7-A5/GpH7-B3/GpL16-k0
11,B11,87.3 % of GpH7-A5/GpH7-B3/GpL16-k0
12,B12,98.8 % of GpH7-A5/GpH7-B3/GpL16-k0
13,B13,144 % of GpH7-A5/GpH7-B3/GpL16-k0
14,B14,152 % of GpH7-A5/GpH7-B3/GpL16-k0
15,B15,139 % of GpH7-A5/GpH7-B3/GpL16-k0
16,B16,101 % of GpH7-A5/GpH7-B3/GpL16-k0
17,B17,122 % of GpH7-A5/GpH7-B3/GpL16-k0
18,B18,56.4 % of GpH7-A5/GpH7-B3/GpL16-k0
19,B19,82.8 % of GpH7-A5/GpH7-B3/GpL16-k0
20,B20,91.8 % of GpH7-A5/GpH7-B3/GpL16-k0
21,B21,77.3 % of GpH7-A5/GpH7-B3/GpL16-k0
22,B22,85.8 % of GpH7-A5/GpH7-B3/GpL16-k0
23,B23,122 % of GpH7-A5/GpH7-B3/GpL16-k0
24,B24,102 % of GpH7-A5/GpH7-B3/GpL16-k0
25,B25,67.3 % of GpH7-A5/GpH7-B3/GpL16-k0
26,B26,86.3 % of GpH7-A5/GpH7-B3/GpL16-k0
27,B27,102 % of GpH7-A5/GpH7-B3/GpL16-k0
28,B28,50.5 % of GpH7-A5/GpH7-B3/GpL16-k0
29,B29,54.6 % of GpH7-A5/GpH7-B3/GpL16-k0
30,B30,60 % of GpH7-A5/GpH7-B3/GpL16-k0
